Experimental findings from patent US20170327594A1 (UNIVERSIT T STUTTGART, published 2017) are described below.

Test [1] has as its target T1, EGFR on tumor cell lines (UniProt P00533 25-1210, limits assumed). The test can be described thus: cell-based or functional assay.
Test [2] deals with T2, HER2-Fc fusion protein (UniProt P04626 23-652, limits assumed).
T2 construct: extracellular domain; also called Fc fusion protein of the extracellular region of HER2; not shown: Fc part
The test can be described thus: ELISA on immobilized HER2-Fc. (ELISA stands for enzyme-linked immunosorbent assay.)

Test [3] concerns the target T1, EGFR on tumor cell lines. The test can be described thus: cell-based or functional assay. The source holds these as a separate data set.
Test [4] concerns the target T3, recombinant TRAIL-R1 (receptor-Fc fusion protein) (UniProt O00220 24-239, limits assumed).
T3 construct: also called TRAIL receptor 1; not shown: Fc part
The test is described as follows: ELISA on recombinant receptor-Fc.

Test [5] concerns the target T1, EGFR on tumor cell lines. The test can be described thus: flow cytometry, NCI-H460 cells. As to the method: Bound proteins were detected with a FITC-labelled anti-His-tag antibody.
Furthermore, the antibody-MHD2 fusion proteins were analyzed by flow cytometry for binding to different tumor cell lines expressing various amounts of EGFR and HER2 (FIG. 4b).
(In flow cytometry, cells or beads pass a laser one at a time.)

The target of test [6] is T4, EGFR-Fc fusion protein (UniProt P00533 25-645, limits assumed).
T4 construct: extracellular domain; also called Fc fusion protein of the extracellular region of EGFR; immobilized EGFR; not shown: Fc part
The test is described as follows: ELISA on immobilized receptor-Fc.

In test [7] the target is T5, HER3-Fc fusion protein (UniProt P21860 20-643, limits assumed).
T5 construct: extracellular domain; Negative control; also called Fc fusion protein of the extracellular region of HER3; not shown: Fc part
The test can be described thus: ELISA on immobilized receptor-Fc.

Test [8] has as its target T4, EGFR-Fc fusion protein. The test is described as follows: ELISA titration on immobilized EGFR; the scFv is the weaker comparator.
For test [9], the target named is T1, EGFR on tumor cell lines. The test can be described thus: flow cytometry, Colo205 and NCI-H460 cells.
Test [10] concerns the target T4, EGFR-Fc fusion protein. The test can be described thus: ELISA on immobilized EGFR-Fc.

B1: scFvEGFR-EHD2-scTRAIL (other)
chain: DYKDDDDKGGGGSAAQPAMAEVQLVESGGGLVQPGGSLRLSCAASGFSLTNYGVHWVRQAPGKGLEWLGVIWSGGNTDYNTPFTSRFTISRDNSKNTLYLQMNSLRAEDTAVYYCARALTYYDYEFAYWGQGTTVTVSSGGGGSGGGGSGGGGSDIQLTQSPSFLSASVGDRVTITCRASQSIGTNIHWYQQKPGKAPKLLIKYASESISGVPSRFSGSGSGTEFTLTISSLQPEDFATYYCQQNNNWPTTFGAGTKLEIKRAAAGGSGGDFTPPTVKILQSSCDGGGHFPPTIQLLCLVSGYTPGTINITWLEDGQVMDVDLSTASTTQEGELASTQSELTLSQKHWLSDRTYTCQVTYQGHTFEDSTKKCADSNGGSGGEFTRGTSEETISTVQEKQQNISPLVRERGPQRVAAHITGTRGRSNTLSSPNSKNEKALGRKINSWESSRSGHSFLSNLHLRNGELVIHEKGFYYIYSQTYFRFQEEIKENTKNDKQMVQYIYKYTSYPDPILLMKSARNSCWSKDAEYGLYSIYQGGIFELKENDRIFVSVTNEHLIDMDHEASFFGAFLVGGGGSGGGSTSEETISTVQEKQQNISPLVRERGPQRVAAHITGTRGRSNTLSSPNSKNEKALGRKINSWESSRSGHSFLSNLHLRNGELVIHEKGFYYIYSQTYFRFQEEIKENTKNDKQMVQYIYKYTSYPDPILLMKSARNSCWSKDAEYGLYSIYQGGIFELKENDRIFVSVTNEHLIDMDHEASFFGAFLVGGGGSGGGSTSEETISTVQEKQQNISPLVRERGPQRVAAHITGTRGRSNTLSSPNSKNEKALGRKINSWESSRSGHSFLSNLHLRNGELVIHEKGFYYIYSQTYFRFQEEIKENTKNDKQMVQYIYKYTSYPDPILLMKSARNSCWSKDAEYGLYSIYQGGIFELKENDRIFVSVTNEHLIDMDHEASFFGAFLVG
notes: Homodimer: anti-EGFR scFv, EHD2, single-chain TRAIL, FLAG-tagged; also called scFv-EHD2-scTRAIL; anti-EGFR scFv-EHD2-scTRAIL
Take B1: in test [1], the “IC50 (nM), in vitro cytotoxicity, Colo205, no bortezomib, no cetuximab” value is 0.5 nM; the “IC50 (nM), in vitro cytotoxicity, Colo205, with bortezomib, no cetuximab” value came to 0.14 nM; the “IC50 (nM), in vitro cytotoxicity, Colo205, with bortezomib, with cetuximab” value was determined as 1.43 nM; the “IC50 (nM), in vitro cytotoxicity, NCI-H460, no bortezomib, no cetuximab” value worked out at 0.32 nM. In [1], the “IC50 (nM), in vitro cytotoxicity, NCI-H460, with bortezomib, no cetuximab” value was determined as 0.02 nM and the “IC50 (nM), in vitro cytotoxicity, NCI-H460, with bortezomib, with cetuximab” value is 0.15 nM. Also, the binding result in test [2] is given as “no binding”. In addition, the “cytotoxic activity against EHD2-scTRAIL, no bortezomib (NCI-H460, Colo205)” value in [3] is around 20 fold. Besides, the binding result in test [4] is “binds”.

B2: scFvEGFR-MHD2 (scFv)
chain: DAAQPAMAEVQLVESGGGLVQPGGSLRLSCAASGFSLTNYGVHWVRQAPGKGLEWLGVIWSGGNTDYNTPFTSRFTISRDNSKNTLYLQMNSLRAEDTAVYYCARALTYYDYEFAYWGQGTTVTVSSGGGGSGGGGSGGGGSDIQLTQSPSFLSASVGDRVTITCRASQSIGTNIHWYQQKPGKAPKLLIKYASESISGVPSRFSGSGSGTEFTLTISSLQPEDFATYYCQQNNNWPTTFGAGTKLEIKRGSLGGSGGAELPPKVSVFVPPRDGFFGNPRKSKLICQATGFSPRQIQVSWLREGKQVGSGVTTDQVQAEAKESGPTTYKVTSTLTIKESDWLGQSMFTCRVDHRGLTFQQNASSMCVPDGGGSGGGTGSEFAAAHHHHHH
notes: Bivalent homodimer: humanized anti-EGFR scFv (hu225) at the N-terminus of the IgM heavy chain domain 2, C-terminal His6; also called scFvA-MHD2; scFv-MHD2
Take B2: the binding result in [5] is “binds”; in test [6], “binds”; in [7] it was “no binding”.

B3: anti-EGFR scFv (hu225) (scFv)
scFv: EVQLVESGGGLVQPGGSLRLSCAASGFSLTNYGVHWVRQAPGKGLEWLGVIWSGGNTDYNTPFTSRFTISRDNSKNTLYLQMNSLRAEDTAVYYCARALTYYDYEFAYWGQGTTVTVSSGGGGSGGGGSGGGGSDIQLTQSPSFLSASVGDRVTITCRASQSIGTNIHWYQQKPGKAPKLLIKYASESISGVPSRFSGSGSGTEFTLTISSLQPEDFATYYCQQNNNWPTTFGAGTKLEIKR
notes: also called monovalent anti-EGFR scFv; scFv directed against EGFR
Take B3: the binding result in [8] is reported as “binds”.

B4: scFvEGFR-EHD2 (scFv)
chain: DAAQPAMAEVQLVESGGGLVQPGGSLRLSCAASGFSLTNYGVHWVRQAPGKGLEWLGVIWSGGNTDYNTPFTSRFTISRDNSKNTLYLQMNSLRAEDTAVYYCARALTYYDYEFAYWGQGTTVTVSSGGGGSGGGGSGGGGSDIQLTQSPSFLSASVGDRVTITCRASQSIGTNIHWYQQKPGKAPKLLIKYASESISGVPSRFSGSGSGTEFTLTISSLQPEDFATYYCQQNNNWPTTFGAGTKLEIKRGSLGGSGGDFTPPTVKILQSSCDGGGHFPPTIQLLCLVSGYTPGTINITWLEDGQVMDVDLSTASTTQEGELASTQSELTLSQKHWLSDRTYTCQVTYQGHTFEDSTKKCADSNGGGSGGGTGSEFAAAHHHHHH
notes: Bivalent homodimer: anti-EGFR scFv at the N-terminus of the IgE heavy chain domain 2, hexahistidyl-tagged; also called scFv-EHD2
Consider B4, for which the values for the binding result in test [2], in [9] and in test [10] were “no binding”, “binds” and “binds”, respectively.
